{
  "source": "paper PMC12589563",
  "target": "KCNQ1 of the KCNQ1APO structure (human) (UniProt P51787)",
  "assay": "cryo-EM structure; human KCNQ1 with CaM, apo state; C4 symmetry, 2.5 Å",
  "data": [
    {"substance": "KCNQ1 of the KCNQ1APO structure (from UniProt P51787 1-676) (natural protein)", "values": [
      {"measurement": "stoichiometry N", "value": 4}
    ]}
  ]
}
